The assay has as its target T1, recombinantly produced human BCMA (human, UniProt Q02223 1-54, limits assumed).
T1 construct: also called B-cell maturation antigen; TNFRSF17
T1 sequence (looked up): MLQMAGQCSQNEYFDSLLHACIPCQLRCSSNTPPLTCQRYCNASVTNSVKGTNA
In words: flow cytometry; CAR-transduced cord blood NK cells stained with recombinantly produced human BCMA to detect the CAR on the surface. As for the experimental part:
Following the incubation, the cells were transferred to a v-bottom 96-well plate for cell staining. The cells, after pelleted by centrifugation and washed with flow buffer, were stained in 1:10 Fc block with fluorescently conjugated mouse anti-human CD3, mouse anti-human CD56, mouse anti-human NKG2D, and recombinantly produced human BCMA for 30 minutes on ice in the dark. The stained cells were washed, resuspended in Sytox Viability Dye and recorded on an MACSquant flow cytometer. Data were exported and analyzed using FlowJo v10.6.2. Live CD3-CD56⁺BCMA⁺ […] excluding the viability dye were quantified.
A general note: A flow cytometer gives signals particle by particle.

B1: BCMA-DAP10 CAR (other)
chain: QITLRESGGDVVQPGRSLRLSCAASGFTFSSYAIHWVRQAPGKGLEWVAVTWHDGSNKYYAESVMGRFTISRDNSKNTLYLHMNSLRAEDTGVYYCARAKFGEPQYFQHWGQGTLVTVSSGGGGSGGGGSGGGGSDIVMTQSPSFLSASVGDRVTITCRASQGINNYLAWYQQKPGIAPKLLIYAASTLQSGVPSRFGGSGSGTEFTLTISSLQPEDFATYYCQQLKSYPFTFGPGTKVEIKRAAAIEVMYPPPYLDNEKSNGTIIHVKGKHLCPSPLFPGPSKPKDPKFWVLVVVGGVLACYSLLVTVAFIIFWVLCARPRRSPAQEDGKVYINMPGRGRVKFSRSADAPAYQQGQNQLYNELNLGRREEYDVLDKRRGRDPEMGGKPRRKNPQEGLYNELQKDKMAEAYSEIGMKGERRRGKGHDGLYQGLSTATKDTYDALHMQALPPR
notes: It leaves out the signal peptide, E2A and IL-15; E2A residues left at the C-terminus after cleavage are not described; also called BCMA CAR; BCMA targeting CAR
On to B1, for which the binding result is given as “binds”.
